Test results taken from the supplement of paper PMC10567573.

B1: DFFB (parent)
chain: TLVEAIKEQDGREVDWEYFYGLLF

Variants of: B1
Experiment: protein stability index of a GFP-peptide fusion (GPS, HEK-293T) (PSI 1-6); higher = more stable
Settings: c terminus: a fixed tail appended
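Further: lentivirally expressed fusions sorted by FACS into six bins by GFP to DsRed ratio, PSI derived from sequencing read proportions per bin multiplied by bin number.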

Protein stability index of substitutions, site by site:
E8: L 2.82, M 1.62, N 2.53, P 2.38, Q 1.43, R 2.67, S 1.72, V 1.66, Y 2.48
Q9: A 1.37, D 1.97, E 2.26, F 2.73, G 1.26, H 2.33, I 1.87, K 1.55, L 3.05, M 1.74, N 1.57, P 3, R 2.27, S 1.66, T 2, V 1.24, W 2.59, Y 1.08
D10: A 2.01, C 1.99, F 1.91, G 2.66, H 1.99, K 2.12, L 1.91, M 1.35, N 1.86, P 2.32, Q 1.71, R 1.41, S 2.37, T 1.59, V 1.73, Y 1.92
G11: A 1.84, C 2.72, E 2.13, F 1.02, H 2.04, K 1.61, M 2.13, N 2.13, P 2.44, Q 2.04, S 1.7, T 2.28, V 2.92, Y 1.88
R12: A 1.32, C 1.91, E 2.44, F 1.48, G 1.74, H 2.2, I 1.56, K 2.41, M 2.18, N 2.42, P 2.16, Q 2.41, S 1.84, T 1.92, V 2.07, W 1.72, Y 2.59
E13: A 1.74, C 1.22, D 2.1, F 1.85, G 3.05, H 1.84, I 2.36, K 3.03, L 1.57, M 2.02, N 1.79, P 1.67, R 1.81, S 1.76, T 1.98, V 2.07, W 2.27, Y 3.29
V14: A 2.25, C 1.5, D 1.28, E 2.37, F 1.51, G 2.12, H 1.91, I 2.05, K 1.23, L 2.28, M 1.98, N 2.36, P 1.76, Q 1.7, R 1.65, S 2.24, T 2.36, W 2.12, Y 2.18
D15: A 1.44, C 1.9, E 3.52, F 1.93, G 1.9, H 1.51, I 2.15, L 1.59, M 1.69, N 1.9, P 2.2, Q 1.78, R 1.75, S 2.12, T 2.08, W 1.88, Y 1.19
W16: A 2.06, C 2.46, D 2.53, E 2.19, F 1.93, G 2.44, H 1.58, I 1.93, K 1.87, L 1.66, M 2.05, N 2.63, P 2.44, Q 2.17, R 2.3, S 2.84, T 3.12, V 2.61, Y 1.72
E17: A 2.06, D 2.52, F 1.6, G 2.38, H 2.08, I 1.48, K 3.25, L 2.18, M 1.78, N 1.4, P 1.33, Q 2.21, R 2.46, T 2.42, V 2.24, Y 1.67
Y18: A 1.92, D 2.16, F 1.76, G 1.71
